Test system: MS2 coat protein
Assay: apparent KD of MS2 coat protein; designed switch direction (-1 OFF switch, 1 ON switch): -1; higher = weaker reporter binding
In short: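 An oligonucleotide input, 200 uM small-molecule ligand, or no input was present during titration of SNAP-549-labelled MS2 coat protein, which was doubled from 0.7 or 1.5 nM to 3 µM. Designed RNA switches had been transcribed on Illumina chips by stalled E. coli RNA polymerase. Apparent KD per design is the median over clusters of curves fitted to normalised cluster fluorescence.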

[1] = input ligand: microRNA oligo, concentration not stated
[2] = Eterna round: R95, input ligand: FMN 200 uM
[3] = Eterna round: R95, input ligand: microRNA oligo, concentration not stated
[4] = Eterna round: R95, input ligand: none

Row | Sequence | apparent KD of MS2 coat protein (input ligand: FMN 200 uM) [nM] | apparent KD of MS2 coat protein (input ligand: none) [nM] | apparent KD of MS2 coat protein [1] [nM] | apparent KD of MS2 coat protein [2] [nM] | apparent KD of MS2 coat protein [3] [nM] | apparent KD of MS2 coat protein [4] [nM]
1 | GCAAGCUUUUUCGUGGGUGACAUGAGGAUCACCCAUGUUUGCCACGUCUUGUGGGCCCGGGCCCGCGGCCCGGGCCC [-44.9, -65.2, A 12%] (Eterna round: R97, puzzle: Sensor, turn-off variant 1) | 54.6 | 67.6 |  |  |  | 
2 | GCACAGACAGGAUAUACAUGAGGAUCACCCAUGUGACCCUUAUAGUACUCGCGUACAAGUAGAAGGGUCUGUGC [Omei Ex3 Model Bachelor's Dilema v32] (Eterna round: R97, puzzle: Exclusion 3) | 320 | 832 |  |  |  | 
3 | GCACGGAGUGUAGGAUAUCUGUGCGAUUAGCUCAGAGAAGGACACAUGAGGAUCACCCAUGUGUACCUCAACACUAAUCCGUGC [Eli exng1 - 076] (Eterna round: R96, puzzle: Exclusion NG 1) | 10.5 | 10.1 | 8.88 |  |  | 
4 | GCACGGAUGGUAGGAUAUCUGUGCGAUUAGCUCAGAGAAGGACCACAUGAGGAUCACCCAUGUACCUCAAUUAGCCUUCCGUGC [Eli exng1 - 019] (Eterna round: R96, puzzle: Exclusion NG 1) | 14.8 | 15.2 | 11.3 |  |  | 
5 | GCAGAAAGUGUAGGAUAUAGAAAUUAGCGGAAACGCAAUACAUGAGGAUCACCCAUGUUUCCUCACUAGAAGGGCAAAAGCUGC [EXNG2 V2 f] (Eterna round: R96, puzzle: Exclusion NG 2) |  |  | 12.8 |  |  | 
6 | GCAGAAAGUGUAGGAUAUAGAUAUUAGCGGAAACGCAAUACAUGAGGAUCACCCAUGUUUCCUCACUAGAAGGGCAAAAGCUGC [EXNG2 V2 d] (Eterna round: R96, puzzle: Exclusion NG 2) | 18.7 | 17.2 | 12.5 |  |  | 
7 | GCAGACGUAGUGAGGAUAUGCUCUACCUCGGUAGAGCAGAAGGCACAUGAGGAUCACCCAUGUGAUUCUUCUGC [Omei Ex4B B10] (Eterna round: R97, puzzle: Brourd's mod of Exclusion 4) | 324 | 47.2 |  |  |  | 
8 | GCAGACGUAGUGAGGAUAUGCUCUACCUCGGUAGAGCAGAAGGCACAUGAGGAUCACCCAUGUGGUUCCUCAUC [Omei Ex4B B19] (Eterna round: R97, puzzle: Brourd's mod of Exclusion 4) | 54 | 15.6 |  |  |  | 
9 | GCAGCAAAAUUCCAUAAAACCACAUGAGGAUCACCCAUGUCUCAGGAUAUGGUCUGGAUUACAGGCCAGAAGGGAGAAAGCUGC [Eli exng3 - 058] (Eterna round: R96, puzzle: Exclusion NG 3) | 14.6 | 13.9 | 12.6 |  |  | 
10 | GCAGCAUAGUGUUAUUACACAAUACAUGAGGAUCACCCAUGUGAGGAUAUGGACUGGAUUACAGUCCAGAAGGCACAAAGCUGC [Zipper Style 3] (Eterna round: R96, puzzle: Exclusion NG 3) | 21.7 | 19.8 | 12.5 |  |  | 
11 | GCAGCAUUAGGAUAUUGCUAAUGUAACAUGAGGAUCACCCAUGUGUGUCGUUAUUACUUAUAAGAAGGAAUGUGCC [Eternabot (L2) Solution 88] (Eterna round: R97, puzzle: Exclusion 5) | 24.9 | 36.4 |  |  |  | 
12 | GCAGCGUAGUCCAAAUAGGACAUACAUGAGGAUCACCCAUGUCAGGAUAUGGUCUGGAUUACAGGCCAGAAGGGACAAAGCUGC [Eli exng3 - 003] (Eterna round: R96, puzzle: Exclusion NG 3) | 19 | 26 | 15.8 |  |  | 
13 | GCAGCGUAGUCUAAAUAAGACAUACAUGAGGAUCACCCAUGUCAGGAUAUGGUCUGGAUUACAGGCCAGAAGGGACAAAGCUGC [Eli exng3 - 002] (Eterna round: R96, puzzle: Exclusion NG 3) | 21.4 | 17.7 | 16.5 |  |  | 
14 | GCAGCGUAUGUAGGAUAUCGGUCAGUUUCUGAUCGAGAAGGACAUGAGGAUCACCCAUGUAUAUUCUAGCGUGAGCUAGGCUGC [JL ENG1 3.70] (Eterna round: R96, puzzle: Exclusion NG 1) |  |  | 14.3 |  |  | 
15 | GCAGCUAAUGCAGGAUAUCAGCACGUUUAGUGCUGAGAAGGGCACAUGAGGAUCACCCAUGUGAUCAAUUAAUAUUAAUGCUGC [ENG1/11-B2] (Eterna round: R96, puzzle: Exclusion NG 1) | 152 | 31 | 23.1 |  |  | 
16 | GCAGCUUAGUUAACAGACUGUUACAUGAGGAUCACCCAUGUGCAGGAUAUGGUCUGGAUUACAGGCCAGAAGGGUACAGGCUGC [Eli exng3 - 017] (Eterna round: R96, puzzle: Exclusion NG 3) | 10.8 | 13.4 | 6.6 |  |  | 
17 | GCAGGAUAAGUGAGGAUAUACCUAUGGAUACAUAGGUAGAAGGCACAUGAGGAUCACCCAUGUUCCUUACCUGC [Fiskers BMX 4 - 66] (puzzle: Brourd's mod of Exclusion 4) |  |  |  | 42 | 11.5 | 13

Row | Sequence | apparent KD of MS2 coat protein (input ligand: FMN 200 uM) [nM] | apparent KD of MS2 coat protein (input ligand: none) [nM] | apparent KD of MS2 coat protein [1] [nM] | apparent KD of MS2 coat protein [2] [nM] | apparent KD of MS2 coat protein [3] [nM] | apparent KD of MS2 coat protein [4] [nM]
18 | GCAGUGCGAGGAUAUACAUGAGGAUCACCCAUGUGAGAAUAAGAAGUGAGGAAGAAAAGUAGAAGGCGCGUUGG [Mat - Exclusion 3 - Mod of Salish D66] (Eterna round: R96, puzzle: Exclusion 3) | 103 | 52.6 | 49.5 |  |  | 
19 | GCAGUGCGAGGAUAUACAUGAGGAUCACCCAUGUGAGAAUAAGAAGUGAGGAAGAAAAGUAGAAGGCGCGUUGG [Mat - Exclusion 3 - Mod of Salish D66] (puzzle: Exclusion 3) |  |  |  | 77.5 | 36.4 | 59.6
20 | GCAGUUCGAGUUAGGAUAUGAUUAAAAUUCGGAUAUCAGAAGGAACUUGAGGAUCACCCAAGUAUAGAUGUUGC [JR_BMEx4_Sub059] (Eterna round: R97, puzzle: Brourd's mod of Exclusion 4) | 42.1 | 17.1 |  |  |  | 
21 | GCAUGUUAUGUCAGGAUAUACCUAUGGAUACAUAGGUAGAAGGGACAUGAGGAUCACCCAUGUCCUAACCAUGC [Fiskers BMX 4 - 22] (puzzle: Brourd's mod of Exclusion 4) |  |  |  |  | 11.4 | 
22 | GCCAGAGCAGGAUAUUCAAUAUCUCACAUGAGGAUCACCCAUGUCCAGCGAAAGCUGGAGGGAGAAGGGCUCUGGC [Fiskers Ex 5 - 9] (puzzle: Exclusion 5) |  |  |  | 42.1 | 57.3 | 61.6
23 | GCCAUGUGAGGAUAUGUGGUCGAAUAUGAAAGUGAUUGACCAUAGAAGGCACAUGAGGAUCACCCAUGUCCUUU [Eternabot (L2) Solution 64] (Eterna round: R97, puzzle: Exclusion 4) | 131 | 27.3 |  |  |  | 
24 | GCCCGGGCAGGAUAUACAAGCUUGAGCUGAAAAGUUCGAGUACAUGAGGAUCACCCAUGUAGAAGGGCCCGGGC [-37.5, -35.6 kcal, A 28% 1 bis] (Eterna round: R97, puzzle: Exclusion 2) | 29.4 | 18.7 |  |  |  | 
25 | GCCGAAAGUGUGAGGAUAUACCUAUGGAUACAUAGGUAGAAGGCACAUGAGGAUCACCCAUGUUCCUAAUCGGC [Eli bmx4 4.18] (Eterna round: R97, puzzle: Brourd's mod of Exclusion 4) | 306 | 103 |  |  |  | 
26 | GCCGAUUAAGUGAGGAUAUACCUAUGGAUACAUAGGUAGAAGGUACAUGAGGAUCACCCAUGUUCCUUAACGGC [Fiskers BMX 4 - 8] (puzzle: Brourd's mod of Exclusion 4) |  |  |  |  | 10.4 | 
27 | GCCGGAGCAGGAUAUUCAAUAUCACACAUGAGGAUCACCCAUGUCCAGCGAAAGCUGGAGGGAGAAGGGCUCUGGC [Fiskers Ex 5 - 15] (puzzle: Exclusion 5) |  |  |  |  | 56.1 | 
28 | GCCGUAAGUGUGAGGAUAUACCUAUGGAUACAUAGGUAGAAGGCACAUGAGGAUCACCCAUGUUCUCAAUCGGC [Eli BMX r4m5] (Eterna round: R97, puzzle: Brourd's mod of Exclusion 4) | 667 | 125 |  |  |  | 
29 | GCCUACGCAGGAUAUGUCCAGGGAAACAUGAGGAUCACCCAUGUGGAGUGGACUCGGGUUGCAGAAGGGCGGGCAC [Eternabot (Original) Solution 3] (Eterna round: R97, puzzle: Exclusion 5) | 21.2 | 16 |  |  |  | 
30 | GCCUUACCGGUCAGGAUAUACAUUCGUCACUCCUUGUAGAAGGGACAUGAGGAUCACCCAUGUACAUUACAUUC [alecazam41] (Eterna round: R97, puzzle: Brourd's mod of Exclusion 4) | 22 | 26.1 |  |  |  | 
31 | GCCUUAUCCGUCAGGAUAUACAGCCGCUCGUUGUUGUAGAAGGGACAUGAGGAUCACCCAUGUACGUACCAUUG [alecazam4] (Eterna round: R97, puzzle: Brourd's mod of Exclusion 4) | 27.2 | 22.7 |  |  |  | 
32 | GCCUUAUCUGUCAGGAUAUACAAUAAAAUUUUUUUGUAGAAGGGACAUGAGGAUCACCCAUGUACAUUACAUUG [alecazam22] (Eterna round: R97, puzzle: Brourd's mod of Exclusion 4) | 315 | 49.7 |  |  |  | 
33 | GCGAAAACAAGCAAGUGAAACAUGAGGAUCACCCAUGUCCUCAUUUGCUCGUCUUAUAAAAGCUAUCGAAAGAUAGC [Mat - Sensor v3 - turn-off var 1 - Eli Mod - D49] (puzzle: Sensor v3, turn-off variant 1) |  |  |  | 9.41 | 205 | 9.78

— the supplement of paper PMC9170038
